Measurements taken from US20180237508A1.

Key:
[1] = molecular target: Human cytokeratin-8 (CK8) at the cell surface of human cancer cell lines (human) (UniProt P05787); test: flow cytometry, MCF-7 cells, MAb 5 ug/mL
[2] = molecular target: Human cytokeratin-8 (CK8) at the cell surface of human cancer cell lines (human) (UniProt P05787); test: flow cytometry, HT29 cells, MAb 5 ug/mL
[3] = molecular target: Human cytokeratin-8 (CK8) at the cell surface of human cancer cell lines (human) (UniProt P05787); test: flow cytometry, ISRECO-1 cells, MAb 5 ug/mL
[4] = molecular target: Human cytokeratin-8 (CK8) at the cell surface of human cancer cell lines (human) (UniProt P05787); test: flow cytometry, HCT116 +/+ cells, MAb 5 ug/mL
[5] = molecular target: Human cytokeratin-8 (CK8) at the cell surface of human cancer cell lines (human) (UniProt P05787); test: flow cytometry, ISRECO-2 cells, MAb 5 ug/mL
[6] = molecular target: Human cytokeratin-8 (CK8) at the cell surface of human cancer cell lines (human) (UniProt P05787); test: flow cytometry, HCT116-/- cells, MAb 5 ug/mL
[7] = molecular target: Human cytokeratin-8 (CK8) at the cell surface of human cancer cell lines (human) (UniProt P05787); test: flow cytometry, ISRECO-3 cells, MAb 5 ug/mL

Human cytokeratin-8 (CK8) at the cell surface of human cancer cell lines (human), sequence (P05787 whole entry): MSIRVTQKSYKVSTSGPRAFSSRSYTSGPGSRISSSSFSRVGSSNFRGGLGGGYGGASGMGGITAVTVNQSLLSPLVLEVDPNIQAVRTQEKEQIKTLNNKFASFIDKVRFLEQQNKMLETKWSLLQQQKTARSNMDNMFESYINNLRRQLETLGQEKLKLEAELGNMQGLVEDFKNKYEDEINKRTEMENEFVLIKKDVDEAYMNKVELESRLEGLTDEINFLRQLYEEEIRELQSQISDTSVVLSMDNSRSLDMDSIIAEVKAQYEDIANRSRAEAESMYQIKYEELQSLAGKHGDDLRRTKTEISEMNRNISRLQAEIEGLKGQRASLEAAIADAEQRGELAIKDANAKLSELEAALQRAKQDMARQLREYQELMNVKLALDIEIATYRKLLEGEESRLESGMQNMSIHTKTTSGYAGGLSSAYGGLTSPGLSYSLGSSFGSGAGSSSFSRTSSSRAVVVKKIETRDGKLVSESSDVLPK

% (labelled cells) [1] | IFM [1] | % (labelled cells) [2] | IFM [2] | % (labelled cells) [3] | IFM [3] | % (labelled cells) [4] | IFM [4] | % (labelled cells) [5] | IFM [5] | % (labelled cells) [6] | IFM [6] | % (labelled cells) [7] | IFM [7] | Substance
66% | 476 | 17% | 497 | 50% | 553 | 29% | 527 | 26% | 473 | 28% | 517 | 33% | 541 | M20 antibody (commercially available antibody C5301, Sigma)
52% | 462 | 30% | 418 | 45% | 562 | 35% | 554 | 23% | 424 | 38% | 530 | 41% | 402 | 1E8 antibody (commercially available antibody ab28050, abcam)
